Holding throughout (assay): flow cytometry on cells
(In general: A flow cytometer gives signals particle by particle.)

The target in assay [1] is T1, Toll-like receptor 4 (mouse (endogenous in TG-elicited …, UniProt Q9QUK6 26-835)).
T1 sequence (looked up): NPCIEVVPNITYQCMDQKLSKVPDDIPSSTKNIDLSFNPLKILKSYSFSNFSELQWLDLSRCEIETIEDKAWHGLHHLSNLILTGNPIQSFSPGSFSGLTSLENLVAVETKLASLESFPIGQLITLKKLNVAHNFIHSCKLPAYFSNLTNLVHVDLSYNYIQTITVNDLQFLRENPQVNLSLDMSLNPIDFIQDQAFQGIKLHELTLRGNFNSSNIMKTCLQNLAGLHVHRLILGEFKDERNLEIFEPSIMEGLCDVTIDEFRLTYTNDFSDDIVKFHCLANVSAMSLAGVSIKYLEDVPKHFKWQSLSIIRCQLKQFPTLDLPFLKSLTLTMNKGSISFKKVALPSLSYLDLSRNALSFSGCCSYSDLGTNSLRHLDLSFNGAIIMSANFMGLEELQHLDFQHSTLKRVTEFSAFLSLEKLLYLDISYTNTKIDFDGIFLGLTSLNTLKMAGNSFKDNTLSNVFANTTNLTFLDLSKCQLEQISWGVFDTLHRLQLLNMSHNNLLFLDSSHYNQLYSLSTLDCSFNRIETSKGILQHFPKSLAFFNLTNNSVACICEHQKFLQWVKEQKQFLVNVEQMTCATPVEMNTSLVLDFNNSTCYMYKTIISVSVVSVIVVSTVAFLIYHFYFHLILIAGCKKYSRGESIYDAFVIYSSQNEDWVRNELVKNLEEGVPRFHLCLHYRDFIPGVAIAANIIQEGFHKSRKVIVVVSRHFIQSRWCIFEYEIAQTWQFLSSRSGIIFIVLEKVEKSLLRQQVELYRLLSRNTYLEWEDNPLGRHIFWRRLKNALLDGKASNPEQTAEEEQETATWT

Assay [2] deals with T1, Toll-like receptor 4. The source holds these as a separate data set.
The target in assay [3] is T1, Toll-like receptor 4. The source holds these as a separate data set.

Like-named read-outs stand apart in the source and are kept apart here.

B1: Peroxiredoxin 1 (recombinant human Prx1, unlabeled) (natural protein, UniProt Q06830 1-199, looked up)
chain: MSSGNAKIGHPAPNFKATAVMPDGQFKDISLSDYKGKYVVFFFYPLDFTFVCPTEIIAFSDRAEEFKKLNCQVIGASVDSHFCHLAWVNTPKKQGGLGPMNIPLVSDPKRTIAQDYGVLKADEGISFRGLFIIDDKGILRQITVNDLPVGRSVDETLRLVQAFQFTDKHGEVCPAGWKPGSDTIKPDVQKSKEYFSKQK
For the molecule B1, in the assay with Toll-like receptor 4 [1], the affinity, expressed as Ki, was 4100 µM.

B2: FITC-conjugated Prx1 (recombinant human) (natural protein, UniProt Q06830 1-199, looked up)
chain: MSSGNAKIGHPAPNFKATAVMPDGQFKDISLSDYKGKYVVFFFYPLDFTFVCPTEIIAFSDRAEEFKKLNCQVIGASVDSHFCHLAWVNTPKKQGGLGPMNIPLVSDPKRTIAQDYGVLKADEGISFRGLFIIDDKGILRQITVNDLPVGRSVDETLRLVQAFQFTDKHGEVCPAGWKPGSDTIKPDVQKSKEYFSKQK
modifications: FITC conjugated (FITC conjugation kit, Sigma; residues not stated)
As to B2, the results for the equilibrium dissociation constant (Kd) with Toll-like receptor 4 [2] and in the assay with Toll-like receptor 4 [3] were ~1300 µM and 1600 µM, respectively.

B3: Prx1C52S (recombinant human, unlabeled) (natural protein, UniProt Q06830 1-199, looked up)
chain: MSSGNAKIGHPAPNFKATAVMPDGQFKDISLSDYKGKYVVFFFYPLDFTFVSPTEIIAFSDRAEEFKKLNCQVIGASVDSHFCHLAWVNTPKKQGGLGPMNIPLVSDPKRTIAQDYGVLKADEGISFRGLFIIDDKGILRQITVNDLPVGRSVDETLRLVQAFQFTDKHGEVCPAGWKPGSDTIKPDVQKSKEYFSKQK
As for B3, in the assay with Toll-like receptor 4 [1], the affinity, expressed as Ki, was 5200 µM.

B4: FITC-conjugated Prx1C52S (recombinant human) (natural protein, UniProt Q06830 1-199, looked up)
chain: MSSGNAKIGHPAPNFKATAVMPDGQFKDISLSDYKGKYVVFFFYPLDFTFVSPTEIIAFSDRAEEFKKLNCQVIGASVDSHFCHLAWVNTPKKQGGLGPMNIPLVSDPKRTIAQDYGVLKADEGISFRGLFIIDDKGILRQITVNDLPVGRSVDETLRLVQAFQFTDKHGEVCPAGWKPGSDTIKPDVQKSKEYFSKQK
modifications: FITC conjugated (FITC conjugation kit, Sigma; residues not stated)
In turn, B4 had a Kd in the assay with Toll-like receptor 4 [3] of 2500 µM.

Usually Ki stands for a measure of affinity in units of concentration, obtained from inhibition or displacement. Lower therefore signals higher affinity. What is called Kd is the equilibrium constant for the complex coming apart. Low values mean tighter binding, high ones weaker binding.

Values taken from PMC2955897 (Journal of immunology (Baltimore, Md. : 1950), 2009).
